# Publication PMC8980021
# Legend:
# [1] = target: wild type human CD80 extracellular domain Fc fusion (WT CD80 ECD-Fc) (human) (UniProt P33681); assay: SPR; Biacore 3000, CM5 chip with goat anti-human IgG capture antibody; ALPN-202 (120 RU) or WT CD80 ECD-Fc (160 RU) captured; monomeric human CD28, CTLA-4, PD-L1 as analytes; 240 s association, 600 s dissociation, 30 uL/min; global 1:1 fit; for the weak interactions a minimal KD with theoretical Rmax fixed
# [2] = target: ALPN-202 (davoceticept), variant CD80 IgV domain Fc fusion (human) (UniProt P33681); assay: as above
Substance,Kd [1],Kd [2]
recombinant monomeric human PD-L1 (from UniProt Q9NZQ7 19-238) (ligand),> 37000 nM,–
recombinant monomeric human CD28 (from UniProt P10747 19-152) (receptor),> 2600 nM,9.9 nM
